Changes are numbered by the printed parent chain.
T1: human PVRIG on cells (human, UniProt Q6DKI7 1-326)
T1 construct: whole, on cells; over-expressed on HEK cells or endogenous on Jurkat and CD8 T cells; also called hPVRIG; HEK hPVRIG cells
T1 sequence (looked up): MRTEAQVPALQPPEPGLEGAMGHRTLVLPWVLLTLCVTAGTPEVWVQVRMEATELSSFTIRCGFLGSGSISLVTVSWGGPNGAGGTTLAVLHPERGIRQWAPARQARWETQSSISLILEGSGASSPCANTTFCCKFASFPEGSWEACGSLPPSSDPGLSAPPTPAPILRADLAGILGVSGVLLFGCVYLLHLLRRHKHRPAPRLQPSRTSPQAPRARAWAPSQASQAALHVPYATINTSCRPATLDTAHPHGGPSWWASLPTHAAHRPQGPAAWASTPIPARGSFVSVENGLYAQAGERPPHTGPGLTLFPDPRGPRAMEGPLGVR

T2: PVRIG (FACS-based competition assay of FIGS. 7 and 15) (Homo sapiens, UniProt Q6DKI7)
T2 construct: made because the format of the assay is only described in U.S. Ser. No. 15/048,967; also called human PVRIG
T2 sequence (receptor, looked up): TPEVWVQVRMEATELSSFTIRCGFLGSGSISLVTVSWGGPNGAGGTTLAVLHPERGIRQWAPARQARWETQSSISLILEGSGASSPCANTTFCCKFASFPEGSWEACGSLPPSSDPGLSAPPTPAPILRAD

T3: cynomolgus PVRIG on cells (cynomolgus, UniProt A0A2K5WVV8 41-322)
T3 construct: whole, on cells; also called cPVRIG; expi cPVRIG cells
T3 sequence: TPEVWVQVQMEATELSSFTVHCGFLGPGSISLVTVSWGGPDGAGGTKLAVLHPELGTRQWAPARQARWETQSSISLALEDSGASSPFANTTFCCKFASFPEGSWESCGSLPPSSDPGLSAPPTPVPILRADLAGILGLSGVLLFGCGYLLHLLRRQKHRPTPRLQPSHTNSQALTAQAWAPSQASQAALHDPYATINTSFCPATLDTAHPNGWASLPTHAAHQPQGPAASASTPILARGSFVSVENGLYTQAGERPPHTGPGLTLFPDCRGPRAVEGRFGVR

B1: CHA.7.516 (antibody, V domains shown)
VH: QVQLQQSGPELVRPGVSVKISCKVSGYTFTDYVMHWVKQSHAKSLEWIGIISPYSGNTNYNQNFKGKATMTVDKSSSTAYMALARLTSEDSAIYYCAREGDLPMFAYWGQGTLVTVSA
VL: QIVLTQSPTIMSASPGEKVTMTCSASSSVSYIYWYQQNPGSSPRLLIYDTSILASGVPFRFSGSGSGTSYSLTISRMEAEDAATYYCQQWTSYPLTFGSGTKLELK
B2: CHA.7.524 (antibody, V domains shown)
VH: B1 VH with L11V, V24G, T28K, T30P, P53I, N63K, A82E
VL: QIVLTQSPAIMSASPGEKVTMTCNASSSVSYMYWYQQKPISSPRLLIYDTSNLASGVPVRFSGSGSGTSYSLTIGRMEAEDAATYYCQQWSSYPLTFGAGTKVEVK
B3: CHA.7.514 (antibody, V domains shown)
VH: EVQLRQSGADLVKPGASVKLSCTASGFNIKDTYIDWVKQRPEQGLDWIGRIDPANGNTKYDPKFQGKATIITDTSSNTAYLQLSNLTSEDTAVYYCARYGSYPYFDYWGRGTTLAVSS
VL: SIVMTQTPKFLLISAGDRVTITCKASQSVRNDVAWYQQKPGQSPKLLMYYASNRYTGVPDRFTGSGYGTDFTFTISTVQAEDLAVYFCQQDYSSPPTFGGGTKLEIK
B4: CHA.7.512 (antibody, V domains shown)
VH: QIQLVQSGPELKKPRETVKISCKASGYTFTDYSMHWVKQAPGKGLKWMGWINTETGEPTYADDFKGRFAFSLEASASSAYLQINILKDEDTATYFCARSRGGYYEDYYALDYWGQGTSVTVSS
VL: DIQMTQSPASLSASVGESVTITCRASGNIHYYLAWYQQKQGKSPQLLVYNAKNLADGVPSRFSGSGSGTQFSLKINSLQPEDFGSYYCQHFWISPPTFGGGTKLEIK
B5: CHA.7.522 (antibody, V domains shown)
VH: QVQLQQPGSELVRPGTSVKLSCKASGYTFTSYWVHWVRQRHGQGLEWIGNVYPGSGSTNYDEKFKSKGTLTVDTSSSTAYMHLSSLTSEDSAVYYCTRGVLRFPLDYWGQGTTLTVSS
VL: DIVMTQAAPSVPVTPGESVSISCRSSKSLLHSNGNTYLYWFLQRPGQSPHLLIYRMSNLASGVPDRFSGSGSGTAFTLRISRVEAEDVGVYYCMQHLEYPLTFGAGTKLELK
B6: CHA.7.510 (antibody, V domains shown)
VH: QVTLKESGPGILQPSQTLSLTCSFSGFSLNTSGTGVGWIRQPSGKGLEWLTHIWWNDNKFYNTFLKSRLTISKETSNNQVFLKIASVDTADAATYYCARMAYGNLWFVNWGQGTLVAVST
VL: DIVLTQSPASLAVSLGQRASISCRASRSVTISGYSYMYWYQQKPGQPPRLLFYLASNLASGVPARFSGSGSGTDFTLNIHPVEEEDAAIYYCQHSRELPYTFGGGTKLEIK
B7: CHA.7.544 (antibody, V domains shown)
VH: QVQLKESGPGLVAPSQSLSITCTVSGFSLTSYAITWVRQPPGKGLEWLGVIWPGGGTNYNSALKSRLSISKDNSKSHLFLKMNSLQTDDTARYYCVRSYDGYLDWYFDVWGTGTTVTVSS
VL: NIVMTQSPKSMSMSVGERVTLSCKASENVGTYVSWYQQKPDQSPKLLIYGASNRYTGVPDRFTGSGSATDFTLIISSVQAEDLSDYHCGQSYSYPYTFGGGTKLEII

Target: T1, human PVRIG on cells
Assay: FACS, Jurkat cells, relative to control, 3.3ug/ml

First: B1
Second: B2
The “gMFIr Jurkat” value of the first is lower: 5.73 for the first, 7.87 for the second.

First: B3
Second: B4
The “gMFIr Jurkat” value of the first is higher: 7.67 for the first, 1.47 for the second.

Going from B5 to B6, the “gMFIr Jurkat” value rises from 2.99 to 4.19.

Target: T1, human PVRIG on cells
Assay: FACS, human PBMC, CD8+ T cells, 10ug/ml

Compared with B2, B7 is lower in “gMFIr Human CD8+ T cells” value: 6.12 for the first, 2.54 for the second.

Target: T1, human PVRIG on cells
Assay: FACS, human PBMC, CD8+ T cells, 10ug/ml
Remark: another data set of the same source

Going from B1 to B2, the “gMFIr Human CD8+ T cells” value rises from 4.09 to 6.12.

Going from B7 to B3, the “gMFIr Human CD8+ T cells” value rises from 2.54 to 5.15.

Compared with B4, B5 is higher in “gMFIr Human CD8+ T cells” value: 1.15 for the first, 1.9 for the second.

In the case of B6, the “gMFIr Human CD8+ T cells” value is reported as 2.73.

Target: T2, PVRIG (FACS-based competition assay of …)
Assay: FACS-based competition assay of PVRIG blocking; format and competitor not given

B1 and B2 are within 1.5-fold of each other in IC50: 33.1 nM for the first, 30.2 nM for the second.

Going from B3 to B4, the IC50 rises from 38.9 nM to 840 nM (22-fold). The first is the more potent here.

B5 and B6 are within 1.5-fold of each other in IC50: 50.5 nM for the first, 55 nM for the second.

Target: T1, human PVRIG on cells
Assay: FACS, human PBMC, CD56 int. NK cells, 10ug/ml

Compared with B1, B3 is lower in “gMFIr Human CD56 int. NK” value: 4.22 for the first, 4.16 for the second.

Compared with B4, B5 is higher in “gMFIr Human CD56 int. NK” value: 1.3 for the first, 2.06 for the second.

B6 was tested, and the “gMFIr Human CD56 int. NK” value was 3.13.

Target: T3, cynomolgus PVRIG on cells
Assay: FACS, cyno PBMC, CD8+ T cells, 10ug/ml

With B2 the “gMFIr Cyno CD8+ T cells” value was 2.02.

Target: T1, human PVRIG on cells
Assay: FACS, human PBMC, CD8+ T cells, 10ug/ml
Remark: another data set of the same source

First: B1
Second: B3
The “gMFIr Human CD8+ T cells” value of the first is lower: 4.09 for the first, 5.15 for the second.

Compared with B4, B5 is higher in “gMFIr Human CD8+ T cells” value: 1.15 for the first, 1.9 for the second.

With B6 the “gMFIr Human CD8+ T cells” value was 2.73.

Target: T1, human PVRIG on cells
Assay: FACS, human PBMC, CD56 int. NK cells, 10ug/ml
Remark: another data set of the same source

First: B1
Second: B2
The “gMFIr Human CD56 int. NK” value of the first is lower: 4.22 for the first, 5.5 for the second.

First: B7
Second: B3
The “gMFIr Human CD56 int. NK” value of the first is lower: 2.36 for the first, 4.16 for the second.

Compared with B4, B5 is higher in “gMFIr Human CD56 int. NK” value: 1.3 for the first, 2.06 for the second.

In the case of B6, the “gMFIr Human CD56 int. NK” value is reported as 3.13.

Target: T3, cynomolgus PVRIG on cells
Assay: FACS, expi cPVRIG over expi parental cells, 3.3ug/ml

Going from B1 to B3, the “gMFIr Expi cyno OE/par” value rises from 60 to 65.2.

Compared with B4, B5 is higher in “gMFIr Expi cyno OE/par” value: 8.96 for the first, 27.2 for the second.

In the case of B6, the “gMFIr Expi cyno OE/par” value is reported as 38.2.

Target: T1, human PVRIG on cells
Assay: FACS, HEK hPVRIG over HEK parental cells, 3.3ug/ml

Compared with B1, B2 is higher in “gMFIr HEK OE/par” value: 37.9 for the first, 48.3 for the second.

First: B3
Second: B4
The “gMFIr HEK OE/par” value of the first is higher: 49.8 for the first, 5.12 for the second.

First: B5
Second: B6
The “gMFIr HEK OE/par” value of the first is lower: 10.1 for the first, 16.3 for the second.

Target: T2, PVRIG (FACS-based competition assay of …)
Assay: FACS-based competition assay of PVRIG blocking; format and competitor not given
Remark: another data set of the same source

B1 and B2 are within 1.5-fold of each other in IC50: 33.1 nM for the first, 30.2 nM for the second.

Going from B3 to B4, the IC50 rises from 38.9 nM to 840 nM (22-fold). The first is the more potent here.

B5 and B6 are within 1.5-fold of each other in IC50: 50.5 nM for the first, 55 nM for the second.

Target: T3, cynomolgus PVRIG on cells
Assay: FACS, expi cPVRIG over expi parental cells, 3.3ug/ml
Remark: another data set of the same source

Going from B1 to B2, the “gMFIr Expi cyno OE/par” value rises from 60 to 66.3.

First: B7
Second: B3
The “gMFIr Expi cyno OE/par” value of the first is lower: 61.1 for the first, 65.2 for the second.

First: B4
Second: B5
The “gMFIr Expi cyno OE/par” value of the first is lower: 8.96 for the first, 27.2 for the second.

For B6, the “gMFIr Expi cyno OE/par” value was 38.2.

Target: T3, cynomolgus PVRIG on cells
Assay: FACS, cyno PBMC, NK cells, 10ug/ml

For B2, the “gMFIr Cyno NK cells” value was 1.78.

Target: T1, human PVRIG on cells
Assay: FACS, human PBMC, CD56 int. NK cells, 10ug/ml
Remark: another data set of the same source

First: B2
Second: B7
The “gMFIr Human CD56 int. NK” value of the first is higher: 5.5 for the first, 2.36 for the second.

Target: T3, cynomolgus PVRIG on cells
Assay: FACS, cyno PBMC, NK cells, 10ug/ml
Remark: another data set of the same source

Compared with B1, B2 is higher in “gMFIr Cyno NK cells” value: 1.76 for the first, 1.78 for the second.

Target: T3, cynomolgus PVRIG on cells
Assay: FACS, cyno PBMC, CD8+ T cells, 10ug/ml
Remark: another data set of the same source

Compared with B1, B2 is lower in “gMFIr Cyno CD8+ T cells” value: 2.09 for the first, 2.02 for the second.

Target: T3, cynomolgus PVRIG on cells
Assay: FACS, expi cPVRIG over expi parental cells, 3.3ug/ml
Remark: another data set of the same source

Going from B2 to B7, the “gMFIr Expi cyno OE/par” value falls from 66.3 to 61.1.

Target: T1, human PVRIG on cells
Assay: FACS, HEK hPVRIG cells (HEK OE)

Compared with B1, B2 is 1.7-fold lower in EC50: 0.79 nM for the first, 0.46 nM for the second.

First: B3
Second: B4
The EC50 of the first is 10-fold lower: 5.31 nM for the first, 53 nM for the second. The first is the more potent here.

B5 and B6 are within 1.5-fold of each other in EC50: 91.4 nM for the first, 92.8 nM for the second.

Target: T1, human PVRIG on cells
Assay: FACS, Jurkat cells, relative to control, 3.3ug/ml
Remark: another data set of the same source

B7 was tested, and the “gMFIr Jurkat” value was 5.68.

Target: T1, human PVRIG on cells
Assay: FACS, HEK hPVRIG over HEK parental cells, 3.3ug/ml
Remark: another data set of the same source

For B7, the “gMFIr HEK OE/par” value was 42.6.

Target: T1, human PVRIG on cells
Assay: FACS, HEK hPVRIG cells (HEK OE)
Remark: another data set of the same source

Binder B7 has an EC50 of 0.76 nM.
